pKd: −log10 of the molar value.
What was measured:
[1] = molecular target: chicken TAPBPR, luminal domain (chicken (G. gallus)); experiment: SPR; biotinylated TAPBPR (about 1000 RU) on a streptavidin chip; HLA UV-irradiated 20 min at 365 nm just before injection at 0-20 μM; 25°C; 150 mM NaCl, 20 mM sodium phosphate pH 7.4, 0.1% Tween 20
[2] = molecular target: hTAPBPR^FLQ (S104F, K211L, and R270Q), soluble ectodomain (human); experiment: as above
[3] = molecular target: hTAPBPR^RQ (K211R and R270Q), soluble ectodomain (human); experiment: as above
[4] = molecular target: human TAPBPR (TAP binding protein, related), luminal domain (human); experiment: as above
[5] = molecular target: chicken TAPBPR, luminal domain (chicken (G. gallus)); experiment: SPR; biotinylated TAPBPR on a streptavidin chip; MR1 C262S injected at 0-100 μM; 25°C; 150 mM NaCl, 20 mM sodium phosphate pH 7.4, 0.1% Tween 20
[6] = molecular target: human TAPBPR (TAP binding protein, related), luminal domain (human); experiment: as above
[7] = molecular target: HLA-A*02:06/hβ2m loaded with a placeholder peptide (human)
[8] = molecular target: peptide-loaded HLA-A*02:01/hβ2m (photolabile peptide KILGFVFJV) (human)
[9] = molecular target: peptide-deficient (empty) HLA-A*01:01/hβ2m (human)
[10] = molecular target: chicken TAPBPR, luminal domain (chicken (G. gallus)); experiment: SPR; biotinylated TAPBPR (about 1000 RU) on a streptavidin chip; peptide-loaded HLA, not UV-irradiated, injected at 0-20 μM; 25°C; 150 mM NaCl, 20 mM sodium phosphate pH 7.4, 0.1% Tween 20
[11] = molecular target: human TAPBPR (TAP binding protein, related), luminal domain (human); experiment: as above
[12] = molecular target: peptide-deficient (empty) HLA-A*11:01/hβ2m (human)
[13] = molecular target: peptide-deficient (empty) HLA-A*24:02/hβ2m (human)
[14] = molecular target: chicken TAPBPR, luminal domain (chicken (G. gallus)); experiment: ITC; 150 μM pHLA-B*08:01 in the syringe titrated into 5 μM chTAPBPR in the cell, both with 0.45 mM FLRGRAJGL; 150 mM NaCl, 20 mM sodium phosphate pH 7.2; one-site model; apparent KD
[15] = molecular target: hTAPBPR^FLQ (S104F, K211L, R270Q), luminal domain, C94S (human); experiment: SPR; biotinylated hTAPBPR mutants immobilised on a streptavidin chip; Ac-6-FP-loaded MR1 C262S flowed over at 0-100 µM; 25°C; 150 mM NaCl, 20 mM sodium phosphate pH 7.4, 0.1% Tween 20; one site-specific binding fit
[16] = molecular target: hTAPBPR^KRQ (R105K, K211R, R270Q), luminal domain, C94S (human); experiment: as above
[17] = molecular target: hTAPBPR^RQ (K211R, R270Q), luminal domain, C94S (human); experiment: as above
[18] = molecular target: hTAPBPR^FLQ (S104F, K211L, R270Q), luminal domain, C94S (human); experiment: SPR; biotinylated TAPBPR (about 1000 RU) immobilised on a streptavidin chip; peptide-loaded HLA (photolabile peptide, no UV) flowed over at 0-20 µM; 25°C; 150 mM NaCl, 20 mM sodium phosphate pH 7.4, 0.1% Tween 20; 30 µl/min, 60 s injection, 180 s dissociation; kinetic fit or one site-specific binding …
[19] = molecular target: hTAPBPR^KRQ (R105K, K211R, R270Q), luminal domain, C94S (human); experiment: as above
[20] = molecular target: hTAPBPR^RQ (K211R, R270Q), luminal domain, C94S (human); experiment: as above
[21] = molecular target: HLA-A*02:71/hβ2m loaded with a placeholder peptide (human)
[22] = molecular target: HLA-A*02:77/hβ2m loaded with a placeholder peptide (human)
[23] = molecular target: peptide-deficient (empty) HLA-A*02:01/hβ2m (human)
[24] = molecular target: peptide-deficient (empty) HLA-A*02:01/hβ2m (human); remark: listed apart in the source
[25] = molecular target: peptide-deficient (empty) HLA-B*37:01/hβ2m (human)

For “peptide-deficient (empty) HLA-A*02:01/hβ2m (from UniProt P61769 21-119) (complex)”, the pKd [1] was 5.53, the pKd [2] was 7.09 and the pKd [3] was 6.73. It also gave a pKd [4] of 6.77.
“peptide-deficient (empty) HLA-A*29:02/hβ2m (from UniProt P61769 21-119) (complex)” showed a pKd [1] of 6.54 and a pKd [4] of 6.59.
In the case of “acetyl-6-formylpterin-loaded MR1 C262S/hβ2m (from UniProt P61769 21-119) (complex)”, the pKd [5] was 4.72 and the pKd [6] was 4.01.
“peptide-deficient (empty) HLA-A*68:02/hβ2m (from UniProt P61769 21-119) (complex)” showed a pKd [1] of 6.37 and a pKd [4] of 6.92.
Substance “peptide-deficient (empty) HLA-G*01:01/hβ2m (from UniProt P61769 21-119) (complex)” has a pKd [1] of 4.95.
“peptide-deficient (empty) HLA-E*01:03/hβ2m (from UniProt P61769 21-119) (complex)” was tested, and the pKd [4] was 5.82.
In the case of “hTAPBPR^FLQ (S104F, K211L, and R270Q), soluble ectodomain (domain or fragment)”, the k2overall of peptide exchange (FP), against hTAPBPR [7] was 14 fold, the k2overall of exchange of KILGFVFβFV-loaded HLA-A*02:01 with TAMRA-[…] (FP), against hTAPBPR [8] was 90 fold and the kapp of fluorescent peptide binding to HLA-A*01:01 with 5 μM TAPBPR (FP) [9] was 7e-05 s⁻¹.
In the case of “peptide-loaded HLA-A*68:02/hβ2m (photolabile peptide) (from UniProt P61769 21-119) (peptide-MHC)”, the pKd [10] was 6.25 and the pKd [11] was 6.66.
Work on “peptide-loaded HLA-A*30:01/hβ2m (photolabile peptide) (from UniProt P61769 21-119) (peptide-MHC)” yielded a pKd [11] of 6.02.
In the case of “peptide-deficient (empty) HLA-A*01:01/hβ2m (from UniProt P61769 21-119) (complex)”, the pKd [1] was 5.84.
With “peptide-deficient (empty) HLA-B*08:01/hβ2m (from UniProt P61769 21-119) (complex)” the pKd [1] was 5.72.
Substance “chicken TAPBPR, luminal domain (domain or fragment)” has an overall exchange rate (FP), against hTAPBPR [12] of over 17 fold, an overall exchange rate (FP), against hTAPBPR [13] of over 7 fold and a kapp of fluorescent peptide binding to HLA-A*01:01 with 5 μM TAPBPR (FP) [9] of 0.00017 s⁻¹.
Work on “peptide-loaded HLA-B*08:01/hβ2m (photolabile peptide FLRGRAJGL) (from UniProt P61769 21-119) (peptide-MHC)” yielded a pKd [14] of 5.34 and a pKd [10] of 5.50.
Substance “peptide-deficient (empty) HLA-A*24:02/hβ2m (from UniProt P61769 21-119) (complex)” has a pKd [1] of 5.77 and a pKd [4] of 5.60.
Work on “peptide-deficient (empty) HLA-B*37:01/hβ2m (from UniProt P61769 21-119) (complex)” yielded a pKd [1] of 5.66 and a pKd [4] of 5.15.
For “MR1 C262S loaded with acetyl-6-formylpterin (Ac-6-FP) (complex)”, the pKd [15] was 4.32, the pKd [16] was 4.21 and the pKd [17] was 4.31.
For “peptide-loaded HLA-A*02:01/hβ2m/KILGFVFJV (from UniProt P61769 21-119) (peptide-MHC)”, the pKd [18] was 5.90, the pKd [19] was 5.86 and the pKd [20] was 5.88.
Work on “hTAPBPR^RQ (K211R and R270Q), soluble ectodomain (domain or fragment)” yielded a k2overall of peptide exchange (FP), against hTAPBPR [7] of 9 fold, a k2overall of exchange of KILGFVFβFV-loaded HLA-A*02:01 with TAMRA-[…] (FP), against hTAPBPR [8] of 60 fold and a kapp of fluorescent peptide binding to HLA-A*01:01 with 5 μM TAPBPR (FP) [9] of 0.00014 s⁻¹.
“peptide-loaded HLA-A*29:02/hβ2m (photolabile peptide) (from UniProt P61769 21-119) (peptide-MHC)” was tested, and the pKd [10] was 6.77 and the pKd [11] was 6.72.
With “peptide-loaded HLA-A*02:01/hβ2m (photolabile peptide KILGFVFJV) (from UniProt P61769 21-119) (peptide-MHC)” the pKd [11] was 5.03.
For “peptide-deficient (empty) HLA-A*30:01/hβ2m (from UniProt P61769 21-119) (complex)”, the pKd [1] was 5.89 and the pKd [4] was 6.00.
“human TAPBPR (TAP binding protein, related), luminal domain (domain or fragment)” was tested, and the k2overall of peptide exchange (FP) [21] was 335 M⁻¹ s⁻¹, the k2overall of peptide exchange (FP) [22] was 17200 M⁻¹ s⁻¹ and the k2overall of peptide exchange (FP) [23] was 1160 M⁻¹ s⁻¹. The k2overall of peptide exchange (FP), against chTAPBPR [24] was 8 fold and the k2overall of peptide exchange (FP), against chTAPBPR [25] was 5 fold lower.
Substance “peptide-deficient (empty) HLA-A*11:01/hβ2m (from UniProt P61769 21-119) (complex)” has a pKd [1] of 6.04 and a pKd [4] of 5.69.
“peptide-loaded HLA-A*24:02/hβ2m (photolabile peptide VYGJVRACL) (from UniProt P61769 21-119) (peptide-MHC)” gave a pKd [10] of 4.76 and a pKd [11] of 4.96.
With “hTAPBPR^KRQ (R105K, K211R, and R270Q), soluble ectodomain (domain or fragment)” the k2overall of peptide exchange (FP), against hTAPBPR [7] was 9 fold, the k2overall of exchange of KILGFVFβFV-loaded HLA-A*02:01 with TAMRA-[…] (FP), against hTAPBPR [8] was 60 fold and the kapp of fluorescent peptide binding to HLA-A*01:01 with 5 μM TAPBPR (FP) [9] was 0.00013 s⁻¹.

From publication PMC9956121
